# Experimental data reported in the supplement of paper PMC7877785.
# ± gives the uncertainty stated by the source.
# Assay: self-splicing fitness, log relative to wild type (ln ratio); higher = more splicing; Tetrahymena group I intron in knt gene, E. coli kanamycin selection, DiMSum; sequences stand for … in CUCUCU…GGAGGGAAAAGUUAUCAGGCAUGCACCUGGUAGCUAGUCUUUAAACCAAUAGAUUGCAUCGGUUUAAAAGGCAAGACCGUCAAAUUGCGGGAAAGGGGUCAACAGCCGUUCAGUACCAAGUCUCAGGGGAAACUUUGAGAUGGCCUUGCAAAGGGUAUGGUAAUAAGCUGACGGACAUGGUCCUAACCACGCAGCCAAGUCCUAAGUCAACAGAUCUUCUGUUGAUAUGGAUGCAGUUCACAGACUAAAUGUCGGUCGGGGAAGAUGUAUUCUUCUCAUAAGAUAUAGUCGGACCUCUCCUUAAUGGGAGCUAGCGGAUGAAGUGAUGCAACACUGGAGCCGCUGGGAACUAAUUUGUAUGCGAAAGUAUAUUGAUUAGUUUUGGAGUACUCGUGGUCG
# Method in brief: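 Pooled colonies went to amplicon sequencing on an Illumina HiSeq 2500 after six replicate transformations. The plates were LB agar with 100 μg/mL carbenicillin, 50 μM IPTG and 0.2% rhamnose, with or without 25 μg/mL kanamycin, incubated overnight at 37°C or 30°C. The E. coli BL21(DE3) library had all eight P1ex-region intron nucleotides randomised, the intron placed in the knt kanamycin-resistance gene on pET-22b(+). DiMSum fitness is the error-weighted combination of replicate fold changes, kanamycin against none, normalised to wild type.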
Sequence,self-splicing fitness (ln) (30 °C),self-splicing fitness (ln) (37 °C)
AAAAAGCAAUAUUACGAACG,-0.0786 ± 0.076,-0.303 ± 0.1
AAAAAGCAAUAUUACGAAGC,–,-1.85 ± 0.22
AAAAAGCAAUAUUACGACCG,-0.107 ± 0.13,-0.00629 ± 0.17
AAAAAGCAAUAUUACGACGC,-0.27 ± 0.086,-0.264 ± 0.1
AAAAAGCAAUAUUACGAGAA,-2.33 ± 0.33,-0.686 ± 0.27
AAAAAGCAAUAUUACGAGGA,-2.86 ± 0.16,-2.21 ± 0.15
AAAAAGCAAUAUUACGAUAG,-3.26 ± 0.17,-1.11 ± 0.15
AAAAAGCAAUAUUACGAUUG,-1.86 ± 0.093,-1.67 ± 0.13
AAAAAGCAAUAUUACGCAUG,-0.952 ± 0.066,0.04 ± 0.074
AAAAAGCAAUAUUACGCCAG,-2.24 ± 0.14,-2.24 ± 0.23
AAAAAGCAAUAUUACGCGGA,-1.95 ± 0.11,-0.504 ± 0.11
AAAAAGCAAUAUUACGCGUG,-1.12 ± 0.064,-1.18 ± 0.076
AAAAAGCAAUAUUACGCGUU,-2.73 ± 0.11,-1.44 ± 0.11
AAAAAGCAAUAUUACGCUCC,-1.14 ± 0.13,-0.319 ± 0.17
AAAAAGCAAUAUUACGCUCU,-1.08 ± 0.081,-0.167 ± 0.09
AAAAAGCAAUAUUACGGAAU,-2.25 ± 0.11,-1.36 ± 0.13
AAAAAGCAAUAUUACGGCUG,-0.648 ± 0.085,-0.345 ± 0.13
AAAAAGCAAUAUUACGGGAG,-2.11 ± 0.11,-1.04 ± 0.12
AAAAAGCAAUAUUACGGGGU,-3.62 ± 0.16,-2.32 ± 0.17
AAAAAGCAAUAUUACGUAAA,-1.82 ± 0.086,-1.19 ± 0.09
AAAAAGCAAUAUUACGUAGA,-2.21 ± 0.062,-1.33 ± 0.065
AAAAAGCAAUAUUACGUAGC,-3.26 ± 0.15,-1.64 ± 0.12
AAAAAGCAAUAUUACGUGAC,-2.84 ± 0.14,-2.31 ± 0.17
AAAAAGCAAUAUUACGUGCG,-0.427 ± 0.052,-0.846 ± 0.064
AAAAAGCAAUAUUACGUGUU,-2.04 ± 0.055,-1.22 ± 0.068
AAACAGCAAUAUUACGAGAA,–,-1.95 ± 0.17

Sequence,self-splicing fitness (ln) (30 °C),self-splicing fitness (ln) (37 °C)
AAACAGCAAUAUUACGAGAC,-3.96 ± 0.25,-2.66 ± 0.25
AAACAGCAAUAUUACGAGUA,-1.79 ± 0.1,-1.68 ± 0.11
AAACAGCAAUAUUACGAUAC,-2.44 ± 0.11,-1.37 ± 0.14
AAACAGCAAUAUUACGAUCU,-0.534 ± 0.063,0.138 ± 0.076
AAACAGCAAUAUUACGCAAG,-2.56 ± 0.13,-1.8 ± 0.14
AAACAGCAAUAUUACGCACA,-0.828 ± 0.085,0.269 ± 0.1
AAACAGCAAUAUUACGCAGC,-1.83 ± 0.14,-1.98 ± 0.23
AAACAGCAAUAUUACGCGGC,-3.54 ± 0.12,-2.7 ± 0.12
AAACAGCAAUAUUACGCGUG,-1.42 ± 0.052,-0.0443 ± 0.066
AAACAGCAAUAUUACGCUAG,-1.39 ± 0.095,-1.12 ± 0.13
AAACAGCAAUAUUACGCUGG,-2.53 ± 0.12,-2.62 ± 0.2
AAACAGCAAUAUUACGGAAA,-3.16 ± 0.18,-1.8 ± 0.13
AAACAGCAAUAUUACGGCAC,-1.72 ± 0.083,-0.057 ± 0.1
AAACAGCAAUAUUACGGCAG,-2.08 ± 0.099,-0.063 ± 0.1
AAACAGCAAUAUUACGGCCA,-1.41 ± 0.11,-0.0737 ± 0.12
AAACAGCAAUAUUACGGGCU,-3.15 ± 0.12,-1.95 ± 0.13
AAACAGCAAUAUUACGGUAA,-2.28 ± 0.1,-0.892 ± 0.083
AAACAGCAAUAUUACGGUCC,-2.09 ± 0.12,-0.775 ± 0.11
AAACAGCAAUAUUACGUCAU,-3.39 ± 0.12,-1.55 ± 0.085
AAACAGCAAUAUUACGUCCA,-1.19 ± 0.065,-0.777 ± 0.073
AAACAGCAAUAUUACGUCUA,-1.21 ± 0.065,-0.311 ± 0.07
AAACAGCAAUAUUACGUCUC,-3.42 ± 0.15,-2.31 ± 0.16
AAACAGCAAUAUUACGUGUA,-2.6 ± 0.1,-1.41 ± 0.089
AAACAGCAAUAUUACGUGUU,-4.29 ± 0.15,-2.24 ± 0.11
AAACAGCAAUAUUACGUUUA,-2.11 ± 0.1,-0.623 ± 0.078
AAACAGCAAUAUUACGUUUG,-2.49 ± 0.1,-1.51 ± 0.099

Sequence,self-splicing fitness (ln) (30 °C),self-splicing fitness (ln) (37 °C)
AAAGAGCAAUAUUACGAAAU,-2.67 ± 0.23,-2.4 ± 0.24
AAAGAGCAAUAUUACGACUC,-1.4 ± 0.071,-0.537 ± 0.1
AAAGAGCAAUAUUACGAGAA,-2.11 ± 0.46,–
AAAGAGCAAUAUUACGAUCA,-3.02 ± 0.21,-1.68 ± 0.14
AAAGAGCAAUAUUACGCAAC,-2.78 ± 0.26,-1.77 ± 0.42
AAAGAGCAAUAUUACGCCAG,-3.87 ± 0.35,-0.837 ± 0.21
AAAGAGCAAUAUUACGCCAU,-3.65 ± 0.22,-2.55 ± 0.29
AAAGAGCAAUAUUACGCCUU,-3.49 ± 0.29,-1.81 ± 0.23
AAAGAGCAAUAUUACGCGCU,-2.96 ± 0.4,–
AAAGAGCAAUAUUACGCUAU,–,-2.46 ± 0.21
AAAGAGCAAUAUUACGGAAC,–,-2.8 ± 0.44
AAAGAGCAAUAUUACGGAGU,-3.33 ± 0.2,-3.16 ± 0.26
AAAGAGCAAUAUUACGGCAU,-1.83 ± 0.087,-0.726 ± 0.097
AAAGAGCAAUAUUACGGCGU,-1.87 ± 0.098,0.269 ± 0.094
AAAGAGCAAUAUUACGGUCC,-3.16 ± 0.44,-0.864 ± 0.38
AAAGAGCAAUAUUACGUAGU,-2.39 ± 0.16,-2.46 ± 0.22
AAAGAGCAAUAUUACGUAUU,-3.03 ± 0.2,-1.2 ± 0.14
AAAGAGCAAUAUUACGUCGA,-3.5 ± 0.27,-2.09 ± 0.18
AAAGAGCAAUAUUACGUCGU,-3.75 ± 0.26,-2.62 ± 0.17
AAAGAGCAAUAUUACGUGCU,-3.28 ± 0.22,-2.82 ± 0.25
AAAGAGCAAUAUUACGUUAC,-2.94 ± 0.31,–
AAAUAGCAAUAUUACGAAAC,-3.4 ± 0.27,-1.76 ± 0.18
AAAUAGCAAUAUUACGAAAU,-3.02 ± 0.15,-1.2 ± 0.13
AAAUAGCAAUAUUACGAAUG,-1.37 ± 0.12,-1.62 ± 0.16
AAAUAGCAAUAUUACGACAA,-0.727 ± 0.1,-0.284 ± 0.1
AAAUAGCAAUAUUACGAGAG,-4.01 ± 0.3,-2.49 ± 0.28
